Data reported in article PMC6430795, “Complex formation of APP with GABAB receptors links axonal trafficking to amyloidogenic processing” (Nature Communications, 2019).

Key:
[1] = target: Myc-GB1a (UniProt Q9Z0U4)
[2] = target: T1, AJAP-1 on tsA201 cells (UniProt A2ALI5 44-412); assay: immunostaining of cells or tissue; cell surface binding: transfected tsA201 cells incubated 30 min at room temperature with 0.2 to 2000 nM purified Myc-SD1/2 in OptiMEM, fixed, bound SD1/2 stained with anti-c-Myc and put into ratio with the expressed protein; apparent KD from a Hill equation with a coefficient of 1; settings: one partner purified
T1 construct: adherens junction-associated protein 1; cDNA from Source BioScience in pcDNA3; source: tsA201 cells, transfected, on cells
T1 sequence (looked up): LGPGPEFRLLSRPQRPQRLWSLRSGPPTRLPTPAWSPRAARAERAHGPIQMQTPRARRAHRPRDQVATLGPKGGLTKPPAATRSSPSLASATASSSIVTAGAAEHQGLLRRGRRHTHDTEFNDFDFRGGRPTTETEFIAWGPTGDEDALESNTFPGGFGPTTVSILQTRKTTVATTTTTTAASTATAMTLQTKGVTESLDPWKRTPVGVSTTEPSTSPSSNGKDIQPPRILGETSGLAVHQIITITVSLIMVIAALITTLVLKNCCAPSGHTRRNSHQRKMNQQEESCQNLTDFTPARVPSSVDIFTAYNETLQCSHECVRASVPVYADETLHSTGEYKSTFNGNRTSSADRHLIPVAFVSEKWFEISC

[3] = target: T2, HA-PIANP on tsA201 cells (UniProt Q6P1B3 28-278); assay: as above; settings: one partner purified
T2 construct: PILRα-associated neural protein; cDNA from OriGene in pCMV6 with an HA-tag insertion after amino acid 27; source: tsA201 cells, transfected, on cells; not shown: HA, internal (after residue 27), kept
T2 sequence (looked up): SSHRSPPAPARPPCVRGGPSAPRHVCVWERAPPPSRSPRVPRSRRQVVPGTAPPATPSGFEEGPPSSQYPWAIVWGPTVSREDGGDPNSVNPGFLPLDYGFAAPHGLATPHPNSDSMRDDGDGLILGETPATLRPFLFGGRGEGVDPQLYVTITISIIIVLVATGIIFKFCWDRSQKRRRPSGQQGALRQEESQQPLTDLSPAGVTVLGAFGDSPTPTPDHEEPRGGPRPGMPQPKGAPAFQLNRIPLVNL

[4] = target: T3, APP on tsA201 cells (UniProt P05067-4 18-695); assay: as above; settings: one partner purified
T3 construct: expression was read with goat anti-APP; source: tsA201 cells, transfected, on cells

Molecule: APP (APP695, pCAX-APP695) (from UniProt P05067-4 18-695) (natural protein)
- reduction of BACE1-mediated Aβ40 secretion into the medium of HEK293 cells in the presence of GB1a/2 receptors, ELISA 32 h post-transfection [1]: 77%
- reduction of the APP-βCTF/APP-FL ratio (BACE1 cleavage of APP) in HEK293 cells in the presence of GB1a/2 receptors, immunoblot densitometry [1]: 60%
- reduction of the sAPPβ/APP-FL ratio (BACE1 cleavage of APP) in HEK293 cells in the presence of GB1a/2 receptors, immunoblot densitometry [1]: 57%

B1: recombinant SD1/2 protein (sushi domains 1 and 2 of GB1a) (domain or fragment, UniProt Q9Z0U4 20-158, looked up)
chain: QTPNATSEGCQIIHPPWEGGIRYRGLTRDQVKAINFLPVDYEIEYVCRGEREVVGPKVRKCLANGSWTDMDTPSRCVRICSKSYLTLENGKVFLTGGDLPALDGARVEFRCDPDFHLVGSSRSVCSQGQWSTPKPHCQV
notes: the two N-terminal sushi domains (SD1 and SD2) of the GABAB receptor subunit GB1a; the NMR samples are called unlabeled recombinant SD1/2; also called Myc-SD1/2; Myc-SDI/II
- Kd [2]: 6.4 nM
- Kd [3]: 29.1 nM
- Kd [4]: 188 nM
